Molecular target: immobilized peptides having F NTAA residue (F-P2 peptides of the 484-peptide P1-P2 array)
Assay: cell-based or functional assay

nucleotides inserted into the recording tag per encoding cycle (nt per encoding cycle): 5 to 8
B1: TdT-F4R10 conjugate (designed binder)
chain: GSSHHHHHHGGSSDSPVDLKPKPKVKPKLERPKLYKVMLLNDNSTPGEFVTVVLKAVFRMSEDTGRRVMMTAHRFGSAVVVVSERDIAETKAKEATDLGKEAGFPLMFTTEPEEGAPSGAPSGAPSGAPSGAPSGAPSSPSPVPGSQNVPAPAVKKISQYACQRRTTLNNYNQLFTDALDILAENDELRENEGSCLAFMRASSVLKSLPFPITSMKDTEGIPCLGDKVKSIIEGIIEDGESSEAKAVLNDERYKSFKLFTSVFGVGLKTAEKWFRMGFRTLSKIQSDKSLRFTQMQKAGFLYYEDLVSCVNRPEAEAVSMLVKEAVVTFLPDALVTMTGGFRRGKMTGHDVDFLITSPEATEDEEQQLLHKVTDFWKQQGLLLYCDILESTFEKFKQPSRKVDALDHFQKCFLILKLDHGRVHSEKSGQQEGKGWKAIRVDLVMCPYDRRAFALLGWTGSRQFERDLRRYATHERKMMLDNHALYDRTKRVFLEAESEEEIFAHLGLDYIEPWERNA

From patent publication US20240053350A1
